Data on four molecules can be found in US20240327525A1 (VIB VZW, published 2024).

Read-outs that look alike come from different tables or passages of the source.

The target of assay [1] is T1, human CI-M6PR domain1-3His6 (human, UniProt P11717 41-467).
T1 construct: Recombinant, made in HEK293 cells; Biotinylated with NHS-PEG4-biotin for BLI; unlabelled in SEC-MALLS and crystallisation; also called CI-M6PR hDom1-3His6; hDom1-3His6
Briefly: BLI, biotinylated antigen on SA tips, global 1:1 fit, association at pH 7.4. On the procedure: (§1) For VHH 1H11 (SEQ ID NO: 24) and VHH 1H52 (SEQ ID NO: 25), a BLI experiment was performed in which the human CI-M6PR domain₁₋₃His₆ was biotinylated and coupled to streptavidin biosensor tips. After loading, the tips were incubated with VHHs serially diluted in pH 7.4 kinetic buffer during the association phase and dissociation was performed at pH 7.4, pH 6.5, pH 6.0, pH 5.5 and pH 5.0. All biosensor tips were then regenerated before analysis of the subsequent VHH. […] When both association and dissociation were performed at pH 7.4, a global fit was performed according to the 1:1 binding model of which the resulting affinity constants (KD), association (kₒₙ) and dissociation rate constants (koff) are shown. For measurements with association at pH 7.4 and dissociation at pH 6.5, 6.0, 5.5 and 5.0, the depicted dissociation rate constants are an average of the parameters determined by local curve fitting of the dissociation of 200, 100 and 50 nM VHH. Association-dissociation curves for VHH1H11 and VHH1H52 are shown in FIG. 19 and FIG. 20, respectively.
In general terms: BLI is a label-free optical method that tracks binding on a fibre tip over time.

Assay [2] has as its target T1, human CI-M6PR domain1-3His6. Description: BLI, association pH 7.4, dissociation at pH 6.5, mean of local fits. On the procedure:
as §1

Assay [3] has the same target. Briefly: BLI, association pH 7.4, dissociation at pH 6.0, mean of local fits. On the procedure: (§2) FIG. 19-20. Association-dissociation graphs of anti-CI-M6PR VHH1H11 and VHH1H52, resp. analyzed using BLI. BLI was performed on an Octet Red96 (FortéBio) instrument in kinetics buffer (0.2 M Na₂HPO₄, 0.1 M Na⁺citrate, 0.01% bovine serum albumin, 0.002% Tween-20). Biotinylated human domain₁₋₃His₆ was immobilized on Streptavidin SA biosensors (Sartorius) to a signal of 0.6 nm. A 120 s association phase in VHH 1H11 (FIG. 19) or VHH 1H52 (FIG. 20) serially diluted (0-200 nM) in pH 7.4 phosphate citrate buffer, was followed by 420 s of dissociation in phosphate buffer of either pH 7.4, 6.5, 6.0, 5.5 or 5.0. Between assays, biosensors were regenerated by three times 10 s exposure to regeneration buffer (10 mM glycine pH 3). The degree of association and dissociation was measured in δ nm over time(s).
(§3) For VHH 1H11 (SEQ ID NO: 24) and VHH 1H52 (SEQ ID NO: 25), a BLI experiment was performed in which the human CI-M6PR domain₁₋₃His₆ was biotinylated and coupled to streptavidin biosensor tips. […] For measurements with association at pH 7.4 and dissociation at pH 6.5, 6.0, 5.5 and 5.0, the depicted dissociation rate constants are an average of the parameters determined by local curve fitting of the dissociation of 200, 100 and 50 nM VHH. […]

The target is the same in assay [4]. Briefly: BLI, association pH 7.4, dissociation at pH 5.0, mean of local fits. The method, then: as §2, §3
The target is the same in assay [5]. Briefly: BLI, association pH 7.4, dissociation at pH 5.5, mean of local fits. On the procedure: as §2, §3
The target is the same in assay [6]. Description: BLI, biotinylated antigen on SA tips, global 1:1 fit, dissociation at pH 7.4. The method, then:
as §1

For assay [7], the target named is human cation-independent mannose-6-phosphate receptor on cells (human, UniProt P11717 41-2491). Description: cell-based or functional assay.
Assay [8] deals with T1, human CI-M6PR domain1-3His6. Description: BLI, biotinylated antigen on SA tips, global 1:1 fit, dissociation at pH 7.4. The method, then:
(§4) Biotinylated human domain₁₋₃His₆ was immobilized on Streptavidin SA biosensors (Sartorius) to a signal of 0.6 nm. […] Between runs, biosensors were regenerated by three times 10 s exposure to regeneration buffer (10 mM glycine pH 3). The degree of association and dissociation was measured in δ nm over time(s).
(§5) FIGS. 10A-10E. […] BLI was performed on an Octet Red96 (FortéBio) instrument in kinetics buffer (0.2 M Na₂HPO₄, 0.1 M Na⁺citrate, 0.01% bovine serum albumin, 0.002% Tween-20). Biotinylated human domain₁₋₃His₆ was immobilized on Streptavidin SA biosensors (Sartorius) to a signal of 0.6 nm. […] Between assays, biosensors were regenerated by three times 10 s exposure to regeneration buffer (10 mM glycine pH 3). The degree of association and dissociation was measured in δ nm over time(s).
(§6) After loading, the tips were incubated with VHHs serially diluted in pH 7.4 kinetic buffer during the association phase and dissociation was performed at pH 7.4, pH 6.5, pH 6.0, pH 5.5 and pH 5.0. All biosensor tips were then regenerated before analysis of the subsequent VHH. Table 3 summarizes the kinetic parameters retrieved after processing and curve fitting of the BLI measurements.
This is another data set of the same source.

Assay [9] shares this target. Briefly: BLI, biotinylated antigen on SA tips, global 1:1 fit, association at pH 7.4. On the procedure: as §4, §5, §6
This is another data set of the same source.

Assay [10] shares this target. Description: BLI, association pH 7.4, dissociation at pH 6.0, mean of local fits. The method, then:
(§7) FIGS. 9A-9E. […] BLI was performed on an Octet Red96 (FortéBio) instrument in kinetics buffer (0.2 M Na₂HPO₄, 0.1 M Na⁺citrate, 0.01% bovine serum albumin, 0.002% Tween-20). Biotinylated human domain₁₋₃His₆ was immobilized on Streptavidin SA biosensors (Sartorius) to a signal of 0.6 nm. […] Between runs, biosensors were regenerated by three times 10 s exposure to regeneration buffer (10 mM glycine pH 3). The degree of association and dissociation was measured in δ nm over time(s).
as §5
The source holds these as a separate data set.

For assay [11] the target is unchanged. Briefly: BLI, association pH 7.4, dissociation at pH 6.5, mean of local fits. On the procedure: as §7, §5
The source holds these as a separate data set.

For assay [12] the target is unchanged. Description: not stated in the sentence (pH-dependent dissociation).
Assay [13] has the same target. Description: BLI, association pH 7.4, dissociation at pH 5.0, mean of local fits. On the procedure: as §7, §5
The source holds these as a separate data set.

For assay [14] the target is unchanged. Briefly: BLI, association pH 7.4, dissociation at pH 5.5, mean of local fits. The method, then: as §7, §5
This is another data set of the same source.

Assay [15] shares this target. Description: BLI at pH 7.4.

A word on the kon: it is the rate constant with which the complex forms. As a reminder, the koff is a measure of how fast the partners let go of each other. Low values mean a long-lived complex, high ones a short-lived complex. In general, Kd refers to the concentration at which binding is half-saturated.

B1: anti-CI-M6PR VHH 1H11 (VHH)
VHH: QVQLQESGGGLVQPGGSLRLSCAASGIIFSDNRMDWYRQAPGKQREWVATLASYGWKTYADSVKDRFTISRDNAKNTVNLYMNSLQPEDTAVYYCNSGQYWGQGTQVTVSS
notes: Made in E. coli (pHEN6c), IMAC purified; tag not specified
For the molecule B1, the kon in assay [1] is 510000 M⁻¹ s⁻¹. The koff in assay [2] was 0.0048 s⁻¹; in assay [3] it was 0.0051 s⁻¹; in assay [4], 0.0083 s⁻¹; in [5] it was 0.0063 s⁻¹; in assay [6], 0.0025 s⁻¹. Further, in assay [6], the Kd was determined as 4.9 nM.

B2: anti-CI-M6PR VHH7 (VHH)
VHH: QVQLQESGGGLVQPGGSLRLSCAASGIIFSDNRMDWYRQAPGKQREWVATLASYGWKTYADSVKGRFTISRDNTKNTVYLRMNSLKPEDTAVYYCKASSPVLNDIWGQGTQVTVSS
notes: Purified by IMAC, so tagged; Labelled with Alexa Fluor 488 (NHS ester) in the imaging experiments
On to B2, for which the “internalisation rate (live-cell imaging of AF488-VHH on MCF7 cells)” value in [7] was determined as 1.26e+06 summed AF-voxels/minute. The same molecule yielded a Kd in assay [8] of 10.1 nM. The koff was 0.0055 s⁻¹ in assay [8]; 0.0099 s⁻¹ in assay [10]; 0.0091 s⁻¹ in [11]; 0.017 s⁻¹ in assay [13]; 0.013 s⁻¹ in [14]. The same molecule gave a kon in [9] of 540000 M⁻¹ s⁻¹. For the same molecule, the “fold higher dissociation rate at pH 6.0 versus pH 7.4” value in [12] turned out to be 5 fold.

B3: anti-CI-M6PR VHH 1H52 (VHH)
VHH: QVQLQESGGGLVQPGGSLRLSCTASGFTWDSYVIGWFRQAPGKGREGVSCLDVDDGSIYYHDSAKGRFSISRDNAKNTVYLQMNSLKPEDTAVYYCAAVNRASMRFRRCLQVLRYDYWGQGTQVTVSS
notes: as for B1
As to B3, the kon in assay [1] was 1e+06 M⁻¹ s⁻¹. The koff in assay [2] amounted to 0.067 s⁻¹; in [3], 0.03 s⁻¹; in assay [4], 0.2 s⁻¹; in [5] it was 0.051 s⁻¹; in assay [6], 0.032 s⁻¹. Moreover, in [6], the Kd was found to be 31 nM.

B4: anti-CI-M6PR VHH8 (VHH)
VHH: QVQLQESGGGLVQAGGSLRLSCEASGRTFNTYNWGWFRQAPGKEREFVAAIRWSSSKTSYADSVKGRFTISRDNAKNTIYLQMNSLKPEDTAVYYCAASIVDFTTNPSHFGSWGQGTQVTVSS
notes: as for B2
On to B4, for which the “internalisation rate (live-cell imaging of AF488-VHH on MCF7 cells)” value in [7] was determined as 673000 summed AF-voxels/minute. Further, the Kd in assay [8] was 0.534 nM; in assay [15], approximately 3.35 nM. Further, the off-rate constant (koff) in assay [8] was 0.00032 s⁻¹; in [10], 0.00091 s⁻¹; in assay [11] it was 0.00084 s⁻¹; in assay [13], 0.023 s⁻¹; in [14], 0.0034 s⁻¹. The kon in assay [9] was found to be 610000 M⁻¹ s⁻¹.
